Measurements from paper PMC9173649 (2022).

Columns and labels:
[1] = biological target: T1, C1q purified from human serum (human, UniProt P02745 23-245; P02746 28-253; P02747 29-245); assay: BLI; 2:1 heterogeneous ligand model, kd2 (second site)
[2] = biological target: T1, C1q purified from human serum; assay: BLI; 2:1 heterogeneous ligand model, KD2 (second site)
[3] = biological target: T1, C1q purified from human serum; assay: BLI; 2:1 heterogeneous ligand model, KD1 (first site)
[4] = biological target: T1, C1q purified from human serum; assay: BLI; 2:1 heterogeneous ligand model, kd1 (first site)

T1 sequence (P02745 23-245, chain 1 of 3): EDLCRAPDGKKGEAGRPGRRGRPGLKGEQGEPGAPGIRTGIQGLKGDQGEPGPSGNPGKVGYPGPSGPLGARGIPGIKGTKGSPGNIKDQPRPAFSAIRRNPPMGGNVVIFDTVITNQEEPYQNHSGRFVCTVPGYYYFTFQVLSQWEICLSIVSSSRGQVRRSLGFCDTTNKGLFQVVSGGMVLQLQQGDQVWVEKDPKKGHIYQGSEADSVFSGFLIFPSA
T1 sequence (P02746 28-253, chain 2 of 3): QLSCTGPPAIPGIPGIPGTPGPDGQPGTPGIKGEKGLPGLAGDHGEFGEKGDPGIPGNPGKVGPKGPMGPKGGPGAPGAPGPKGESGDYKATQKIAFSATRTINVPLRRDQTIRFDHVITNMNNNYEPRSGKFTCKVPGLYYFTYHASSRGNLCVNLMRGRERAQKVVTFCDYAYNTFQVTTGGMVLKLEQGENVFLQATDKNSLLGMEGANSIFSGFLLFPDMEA
T1 sequence (P02747 29-245, chain 3 of 3): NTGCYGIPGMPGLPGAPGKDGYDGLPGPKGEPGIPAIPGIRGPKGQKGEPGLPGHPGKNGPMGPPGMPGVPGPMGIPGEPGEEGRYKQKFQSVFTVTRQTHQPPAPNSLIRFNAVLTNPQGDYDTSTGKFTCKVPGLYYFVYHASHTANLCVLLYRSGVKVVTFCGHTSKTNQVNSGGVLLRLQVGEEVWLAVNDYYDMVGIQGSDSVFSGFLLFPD

koff [1]: 0.00928 s⁻¹
Kd [2]: 4.33 nM
Kd [3]: 10 nM
koff [4]: 0.000402 s⁻¹
B1: C1r2C1s2 catalytic tetramer (complex)
chain 1: SIPIPQKLFGEVTSPLFPKPYPNNFETTTVITVPTGYRVKLVFQQFDLEPSEGCFYDYVKISADKKSLGRFCGQLGSPLGNPPGKKEFMSQGNKMLLTFHTDFSNEENGTIMFYKGFLAYYQAVDLDECASRSKSGEEDPQPQCQHLCHNYVGGYFCSCRPGYELQEDTHSCQAECSSELYTEASGYISSLEYPRSYPPDLRCNYSIRVERGLTLHLKFLEPFDIDDHQQVHCPYDQLQIYANGKNIGEFCGKQRPPDLDTSSNAVDLLFFTDESGDSRGWKLRYTTEIIKCPQPKTLDEFTIIQNLQPQYQFRDYFIATCKQGYQLIEGNQVLHSFTAVCQDDGTWHRAMPRCKIKDCGQPRNLPNGDFRYTTTMGVNTYKARIQYYCHEPYYKMQTRAGSRESEQGVYTCTAQGIWKNEQKGEKIPRCLPVCGKPVNPVEQRQRIIGGQKAKMGNFPWQVFTNIHGRGGGALLGDRWILTAAHTLYPKEHEAQSNASLDVFLGHTNVEELMKLGNHPIRRVSVHPDYRQDESYNFEGDIALLELENSVTLGPNLLPICLPDNDTFYDLGLMGYVSGFGVMEEKIAHDLRFVRLPVANPQACENWLRGKNRMDVFSQNMFCAGHPSLKQDACQGDSGGVFAVRDPNTDRWVATGIVSWGIGCSRGYGFYTKVLNYVDWIKKEMEEED
chain 2: EPTMYGEILSPNYPQAYPSEVEKSWDIEVPEGYGIHLYFTHLDIELSENCAYDSVQIISGDTEEGRLCGQRSSNNPHSPIVEEFQVPYNKLQVIFKSDFSNEERFTGFAAYYVATDINECTDFVDVPCSHFCNNFIGGYFCSCPPEYFLHDDMKNCGVNCSGDVFTALIGEIASPNYPKPYPENSRCEYQIRLEKGFQVVVTLRREDFDVEAADSAGNCLDSLVFVAGDRQFGPYCGHGFPGPLNIETKSNALDIIFQTDLTGQKKGWKLRYHGDPMPCPKEDTPNSVWEPAKAKYVFRDVVQITCLDGFEVVEGRVGATSFYSTCQSNGKWSNSKLKCQPVDCGIPESIENGKVEDPESTLFGSVIRYTCEEPYYYMENGGGGEYHCAGNGSWVNEVLGPELPKCVPVCGVPREPFEEKQRIIGGSDADIKNFPWQVFFDNPWAGGALINEYWVLTAAHVVEGNREPTMYVGSTSVQTSRLAKSKMLTPEHVFIHPGWKLLEVPEGRTNFDNDIALVRLKDPVKMGPTVSPICLPGTSSDYNLMDGDLGLISGWGRTEKRDRAVRLKAARLPVAPLRKCKEVKVEKPTADAEAYVFTPNMICAGGEKGMDSCKGDSGGAFAVQDPNDKTKFYAAGLVSWGPQCGTYGLYTRVKNYVDWIMKTMQENSTPRED
